Laboratory results: article PMC6698648, “A Fanci knockout mouse model reveals common and distinct functions for FANCI and FANCD2” (Nucleic Acids Research, 2019)

Target: T1, Human RAD51 (human, UniProt Q06609 1-339)
T1 sequence (looked up): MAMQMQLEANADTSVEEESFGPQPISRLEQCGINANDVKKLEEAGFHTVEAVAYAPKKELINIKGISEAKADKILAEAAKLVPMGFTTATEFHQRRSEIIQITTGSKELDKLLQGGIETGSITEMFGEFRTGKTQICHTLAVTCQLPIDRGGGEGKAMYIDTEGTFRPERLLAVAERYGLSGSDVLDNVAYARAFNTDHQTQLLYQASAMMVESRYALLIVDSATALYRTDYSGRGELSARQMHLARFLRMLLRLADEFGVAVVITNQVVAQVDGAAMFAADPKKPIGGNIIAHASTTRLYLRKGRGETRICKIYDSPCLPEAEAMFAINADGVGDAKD
Assay: cell-based or functional assay

B1: FANCI (natural protein, UniProt Q9NVI1 1-1328, looked up)
chain: MDQKILSLAAEKTADKLQEFLQTLREGDLTNLLQNQAVKGKVAGALLRAIFKGSPCSEEAGTLRRRKIYTCCIQLVESGDLQKEIASEIIGLLMLEAHHFPGPLLVELANEFISAVREGSLVNGKSLELLPIILTALATKKENLAYGKGVLSGEECKKQLINTLCSGRWDQQYVIQLTSMFKDVPLTAEEVEFVVEKALSMFSKMNLQEIPPLVYQLLVLSSKGSRKSVLEGIIAFFSALDKQHNEEQSGDELLDVVTVPSGELRHVEGTIILHIVFAIKLDYELGRELVKHLKVGQQGDSNNNLSPFSIALLLSVTRIQRFQDQVLDLLKTSVVKSFKDLQLLQGSKFLQNLVPHRSYVSTMILEVVKNSVHSWDHVTQGLVELGFILMDSYGPKKVLDGKTIETSPSLSRMPNQHACKLGANILLETFKIHEMIRQEILEQVLNRVVTRASSPISHFLDLLSNIVMYAPLVLQSCSSKVTEAFDYLSFLPLQTVQRLLKAVQPLLKVSMSMRDCLILVLRKAMFANQLDARKSAVAGFLLLLKNFKVLGSLSSSQCSQSLSVSQVHVDVHSHYNSVANETFCLEIMDSLRRCLSQQADVRLMLYEGFYDVLRRNSQLANSVMQTLLSQLKQFYEPKPDLLPPLKLEACILTQGDKISLQEPLDYLLCCIQHCLAWYKNTVIPLQQGEEEEEEEEAFYEDLDDILESITNRMIKSELEDFELDKSADFSQSTSIGIKNNICAFLVMGVCEVLIEYNFSISSFSKNRFEDILSLFMCYKKLSDILNEKAGKAKTKMANKTSDSLLSMKFVSSLLTALFRDSIQSHQESLSVLRSSNEFMRYAVNVALQKVQQLKETGHVSGPDGQNPEKIFQNLCDITRVLLWRYTSIPTSVEESGKKEKGKSISLLCLEGLQKIFSAVQQFYQPKIQQFLRALDVTDKEGEEREDADVSVTQRTAFQIRQFQRSLLNLLSSQEEDFNSKEALLLVTVLTSLSKLLEPSSPQFVQMLSWTSKICKENSREDALFCKSLMNLLFSLHVSYKSPVILLRDLSQDIHGHLGDIDQDVEVEKTNHFAIVNLRTAAPTVCLLVLSQAEKVLEEVDWLITKLKGQVSQETLSEEASSQATLPNQPVEKAIIMQLGTLLTFFHELVQTALPSGSCVDTLLKDLCKMYTTLTALVRYYLQVCQSSGGIPKNMEKLVKLSGSHLTPLCYSFISYVQNKSKSLNYTGEKKEKPAAVATAMARVLRETKPIPNLIFAIEQYEKFLIHLSKKSKVNLMQHMKLSTSRDFKIKGNILDMVLREDGEDENEEGTASEHGGQNKEPAKKKRKK
RAD51-mediated D-loop formation, RAD51 at 400 nM with added FANCI (up to 100 nM), fold activation relative to RAD51 alone: 8 fold
